From patent US20240009285A1 (REGENERATIVE RESEARCH FOUNDATION, published 2024)

Tests used:
GFP-Tau-(0N4R) = GFP-Tau-(0N4R) (human, UniProt P10636-6 1-383); assay: cell-based or functional assay
[1] = biological target: human α-synuclein protein (human, UniProt P37840 1-140); assay: surface plasmon resonance (SPR); no numbers given

GFP-Tau-(0N4R), sequence (P10636 other isoform, or with tags, fused parts or gaps): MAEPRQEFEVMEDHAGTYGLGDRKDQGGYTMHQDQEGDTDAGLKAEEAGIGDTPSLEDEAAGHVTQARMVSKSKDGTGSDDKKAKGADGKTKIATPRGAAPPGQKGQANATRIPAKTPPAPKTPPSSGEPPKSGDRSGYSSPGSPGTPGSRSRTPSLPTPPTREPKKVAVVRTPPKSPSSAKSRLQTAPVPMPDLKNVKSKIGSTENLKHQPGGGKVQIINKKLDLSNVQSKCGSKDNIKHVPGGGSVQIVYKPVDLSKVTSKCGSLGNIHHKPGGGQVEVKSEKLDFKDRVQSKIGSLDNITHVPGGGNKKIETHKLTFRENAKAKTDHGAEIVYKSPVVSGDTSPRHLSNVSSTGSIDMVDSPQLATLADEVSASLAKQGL

B1: scFv-V-hPEST-D433A (scFv, V domains shown)
VH: QVQLVESGGGLVKPGGSLRLSCAASGFTFSSYAMSWVRQAPGKGLEWVAAISGSGDNTYYADSVKGRFTISRDNSENTVHLQMAGLRAEDTALYFCAKDGPEVGNPGGYFDFWGRGTLVTVSS
**Q.** How did the “reduction of total tau vs EV-CON (western blot)” value (“reduction of total tau vs EV-CON” for short) (GFP-Tau-(0N4R)) turn out when B1 was run?
**A.** ~40%

B2: scFv-N-hPEST-D433A (scFv, V domains shown)
VH: QVQLVESGGGLVKPGGSLRLSCAASGFTFSSYAMSWVRQAPGKGLEWVAAISGSGDNTYYADSVKGRFTISRDNSENTVHLQMAGLRAEDTALYFCAKDGPAVGNPGGYFDFWGRGTLVTVSS
**Q.** How did the “reduction of total tau vs EV-CON” value (GFP-Tau-(0N4R)) turn out when B2 was run?
**A.** ~40%

B3: scFv-N-hPEST-S445A (scFv, V domains shown)
VH: QVQLVESGGGLVKPGGSLRLSCAASGFTFSSYAMSWVRQAPGKGLEWVAAISGSGDNTYYADSVKGRFTISRDNSENTVHLQMAGLRAEDTALYFCAKDGPAVGNPGGYFDFWGRGTLVTVSS
**Q.** B3 was tested. Which “reduction of total tau vs EV-CON” value (GFP-Tau-(0N4R)) did it give?
**A.** ~40%

B4: VHH-4C-N77D (VHH)
VHH: VQLVESGGGGLVQPGGSLRLSCVTPGGIFSDYAMGWYRQAPGKQRELVADITVSDTTRYSDPVKGRFTISRDNAKDMVYLQMNSLKPEDAAIYTCNAQKWEDRYGSSERYDYWGQGTQVTVSS
notes: Unfused nanobody as named in the SPR statement; also called VHH-N77D
**Q.** Does B4 bind [1]?
**A.** binds
